Assay results: patent publication US20250012810A1 (NORDIC BIOSCIENCE A S, published 2025)

Molecular target: T1, elongated peptide GPPGPPGRLVD (human)
T1 construct: The range follows from the stated cleavage site V1709-D1710 and the peptide length
T1 peptide: GPPGPPGRLVD
Test: competitive ELISA on biotin-… coated streptavidin plates
Procedure: A competitive ELISA using the monoclonal antibody raised against C7 was performed using the following procedure:
Streptavidin-coated plates were coated with 100 μL/well of 2.5 ng/mL biotin-labeled peptide (Biotin-[…], SEQ ID NO: 10) diluted in assay buffer (50 mM TBS-BTB, 2 g/L NaCl, pH 8.0) and incubated at 20° C., 300 rpm shaking for 30 minutes. Plates were washed five times in washing buffer ([…] TRIS, 50 mM NaCl, pH 7.2). Sample or standard peptide (20 μL) was added in double determinations and followed immediately by addition of 100 μL/well of 200 ng/mL HRP-labeled monoclonal antibody diluted in assay buffer and plates were incubated at 20° C., 300 rpm shaking for 3 hours. The standard peptide was a synthetic peptide ([…], SEQ ID NO: 1) with a starting concentration of 125 ng/ml and diluted 2-fold to create an 11 points calibration curve (FIG. 1). After incubation, plates were washed five times in washing buffer. A volume of 100 μL 3,3′, 5,5′-tetramethylbenzidine (TMB) was added and incubated for 15 min at 20° C. in the dark. To stop the enzyme reaction of TMB, […] 0.1% sulphuric acid was added and the absorbance was measured at 450 nm with 650 nm as the reference using an ELISA reader. A calibration curve was plotted using a 4-parametric mathematical fit model. […] All samples were measured within the range of the assay. […]

binding result: no binding
B1: monoclonal antibody raised against the C-terminal neo-epitope amino acid sequence …-COOH (C7) (antibody, mouse IgG1, kappa, V domains shown)
VH: EVQLQQSGPELVKPGASVKISCKTSGYTFIENTMNWVKQSHGKSLEWIGGINPKIGGSIYNQKFQDKATLTVDKSSSTAYMELRSLTSDDSAVYYCARGIYDEGWHFDVWGAGTTVTVSS
VL: DIVMTQAAFSNPVTLGTSASISCRSSQSLLYSNGITYLYWYLQKPGQSPQLLIYQMSNLASGVPDRFSSSGSGTDFTLRISRVEAEDVGVYYCAQNLELPWTFGGGTKLEIKR
notes: also called monoclonal antibody raised against C7; HRP-labeled monoclonal antibody
